A value given as a limit tells only on which side of the number the result lay.

The target of the assay is PP1G(7–300) (mouse) (UniProt P63087).

Substance “eIF2a^P (1–185) R66E; K86E double mutant (domain or fragment)” showed a dephosphorylation as a substrate of the PPP1R15B-MBP-PP1-actin ternary complex, against wildtype eIF2a^P (Figure 8B) greater than 10 fold and a dephosphorylation as a substrate of the PPP1R15B-MBP-PP1 binary complex, against wildtype eIF2a^P (Figure 8B) of 2 fold.

These data come from publication PMC4394352.
